This note sets out measurements from patent US20190002553A1.

In experiment [1] the target is human IL-11 (Interleukin 11) (human) (UniProt P20809). Nature of the experiment: cell-based or functional assay.
For a further experiment, the target named is murine IL-11 (mouse) (UniProt P47873). Nature of the experiment: cell-based or functional assay.
Chain of UniProt P47873 (P47873 22-199 limits assumed): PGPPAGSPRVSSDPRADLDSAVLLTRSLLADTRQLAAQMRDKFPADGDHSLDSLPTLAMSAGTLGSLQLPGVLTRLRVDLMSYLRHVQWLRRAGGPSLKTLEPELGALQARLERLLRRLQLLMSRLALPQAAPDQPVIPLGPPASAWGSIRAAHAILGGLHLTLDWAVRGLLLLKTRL

Chain of UniProt P20809 (P20809 22-199 limits assumed): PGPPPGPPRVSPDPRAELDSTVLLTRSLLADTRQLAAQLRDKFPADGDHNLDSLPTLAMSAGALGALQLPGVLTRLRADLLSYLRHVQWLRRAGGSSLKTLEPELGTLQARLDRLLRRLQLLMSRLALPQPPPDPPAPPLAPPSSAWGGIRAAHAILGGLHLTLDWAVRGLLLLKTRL

Consider “neutralising anti-human IL-11 monoclonal antibody (Monoclonal Mouse IgG2A; Clone #22626; Catalog No. MAB218; R&D Systems)”, for which, in experiment [1], the percentage of activated (αSMA-positive) fibroblasts, TGFβ1-stimulated human atrial fibroblasts was 28.3%; the percentage of activated fibroblasts normalised to non-stimulated cultures (=1) (fold of non-stimulated cultures) was 0.99; the percentage of activated fibroblasts, TGFβ1-stimulated human atrial fibroblasts, relative to unstimulated cultures is 0.89 fold. Moreover, in the experiment with murine IL-11 (mouse), the percentage of activated fibroblasts normalised to non-stimulated cultures (=1) (fold of non-stimulated cultures) came to 1.24; the percentage of activated fibroblasts, TGFβ1-stimulated mouse atrial fibroblasts, relative to unstimulated cultures was 1.44 fold; the percentage of activated fibroblasts, TGFβ1-stimulated mouse dermal fibroblasts was found to be 39.4%.
